This is an account of results in patent US20180305449A1 (ONCOMED PHARMACEUTICALS, published 2018).

Test [1] deals with T1, Recombinant mouse VEGF165 (mouse, UniProt Q00731-2 27-190).
T1 construct: also called mVEGF
T1 sequence (looked up): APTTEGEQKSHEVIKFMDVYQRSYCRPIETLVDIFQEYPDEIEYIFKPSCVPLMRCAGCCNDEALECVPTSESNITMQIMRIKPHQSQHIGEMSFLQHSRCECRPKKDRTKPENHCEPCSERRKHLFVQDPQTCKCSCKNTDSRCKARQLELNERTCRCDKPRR
The test is described as follows: SPR (Biacore 2000), biotinylated mouse VEGF165 on streptavidin chip, antibody as analyte. As to the method: (§1) The KDs of parental antibodies anti-VEGF 219R45 (IgG format), anti-DLL4 21R79 (IgG format), anti-DLL4 21M18 (IgG format) and bispecific antibodies 219R45-MB-21M18 and 219R45-MB-21R79 were determined using a Biacore 2000 system from Biacore LifeSciences (GE Healthcare). Recombinant human DLL4-Fc or mouse DLL4-Fc proteins were immobilized on CM5 carboxyl chips using standard amine-based chemistry (NHS/EDC) and blocked with ethanolamine Recombinant human VEGF₁₆₅ or mouse VEGF₁₆₅ were biotinylated and immobilized on streptavidin chips. The antibodies were serially diluted 2-fold from 100 nM to 0.78 nM in HBS-P (0.01M HEPES pH7.4, 0.15M NaCl, 0.005% v/v Polysorbate 20). For each antibody, all 8 dilutions were sequentially injected over a specific chip. Kinetic data were collected over time and were fit using the simultaneous global fit equation to yield affinity constants (KD values) for each bispecific antibody.

Test [2] concerns the target T2, Recombinant human VEGF165 (human, UniProt P15692-4 27-191).
T2 construct: also called hVEGF; hVEGF165
The test is described as follows: HTRF bridging assay: Europium cryptate-labeled hVEGF165 and d2-labeled hDLL4-Fc; signal needs both bound at once. As to the method: (§2) To characterize the binding capabilities of certain antibodies and/or antibody mixtures to both VEGF and DLL4, homogeneous time resolved fluorescence (HTRF) assays were performed. Antibodies tested were anti-VEGF/anti-DLL4 bispecific antibodies 219R45-MB-21M18 and 219R45-MB-21R79, parental antibodies 219R45 (anti-VEGF), 21M18 (anti-DLL4), 21R79 (anti-DLL4), a combination of 219R45 and 21M18, or a combination of 219R45 and 21R79. The antibodies or antibody mixtures were serially diluted 2-fold from 3000 nM to 2.9 nM in binding buffer (1×PBS, 0.1% gelatin, 0.1% Polysorbate 20, 400 mM potassium fluoride) and placed in a white 96-well plate. An equal volume of solution containing 4 μg/ml of d2-labeled hDLL4-Fc and 21.4 ng/ml Europium crypate-labeled hVEGF₁₆₅ was added to each well for a final volume of 100 μl (final concentrations of acceptor and donor fluorophores were 2 μg/ml and 10.7 ng/ml, respectively). The assay plates were incubated for 2 hours to overnight and read on a SpectraMax M5e Microplate reader (Molecular Devices, Sunnyvale Calif.) at an excitation wavelength of 314 nm.
On the technique in general: Time-resolved FRET reads energy transfer from a long-lived donor to a nearby acceptor.

Test [3] addresses T3, Recombinant human DLL4-Fc (human, UniProt Q9NR61 27-522, limits assumed).
T3 construct: also called hDLL4; hDLL4-Fc; not shown: Fc portion
Put plainly: SPR (Biacore 2000), human DLL4-Fc amine-coupled on CM5 chip, antibody as analyte. The method, then:
as §1
For orientation: Surface plasmon resonance follows binding to a sensor surface in real time, without labels.

The target of test [4] is T3, Recombinant human DLL4-Fc. Put plainly: HTRF bridging assay: Europium cryptate-labeled hVEGF165 and d2-labeled hDLL4-Fc; signal needs both bound at once. The method, then: as §2
The target of test [5] is T2, Recombinant human VEGF165. Put plainly: SPR (Biacore 2000), biotinylated human VEGF165 on streptavidin chip, antibody as analyte. The method, then: as §1
Test [6] has as its target T3, Recombinant human DLL4-Fc. The test is described as follows: SPR (Biacore 2000), human DLL4-Fc amine-coupled on CM5 chip, antibody as analyte. As to the method: as §1
Several additional anti-DLL4 antibodies were identified that had binding affinities intermediate to the KDs of 21M18 and 21R79. Two of these anti-DLL4 antibodies were used to produce anti-VEGF/anti-DLL4 bispecific antibodies 219R45-MB-21R75 and 219R45-MB-21R83. Using the Biacore 2000 system as described above, the KDs of the bispecific antibodies 219R45-MB-21R75 and 219R45-MB-21R83 to human DLL4 were determined.
This is another data set of the same source.

The target in test [7] is T4, biotin-DLL4-hFc (UniProt Q9NR61 27-522, limits assumed, biotinylated (site not stated)).
T4 construct: not shown: human Fc (hFc)
Put plainly: bispecific sandwich ELISA: antibody pre-incubated with 2 ug/ml biotin-DLL4-hFc, captured on VEGF-coated plate, detected with streptavidin-HRP. As to the method:
(§3) FIG. 7. Bispecific antibody ELISA. Bispecific antibodies 219R45-MB-21M18, 219R45-MB-21R79, 219R45-MB-21R75, and 219R45-MB-21R83 were diluted in blocking buffer (lx PBS, 0.1% gelatin, 0.1% Polysorbate-20, pH 7.4) containing 2 μg/ml biotin-DLL4-hFc. The antibodies were serially diluted 3-fold from 500 ng/ml to 0.008 ng/ml. The antibody samples were incubated for 2 hours in blocking buffer containing the biotin-DLL4-hFc. After incubation, the antibody samples were transferred to a VEGF-coated assay plate (100 ul/well) and incubated for 2 hours. Streptavidin-HRP was added to each well and incubated for 1 hr. TMB substrate was added to the wells with a 10 minute color development and the reaction was stopped with 2M sulfuric acid. Absorbance was read at 450-650 nm and the data analyzed using the 4-parameter fit within the Softmax Pro analysis program.
as §3, with “VEGF (ATGEN, South Korea) was coated onto Nunc maxisorb plates at 2 ug/ml (100 μl/well) and incubated overnight at 2-8° C. Bispecific” for “FIG. 7. Bispecific antibody ELISA. Bispecific”, “to the” for “to a”, “Streptavidin-HRP (Jackson ImmunoResearch, West Grove, Pa.)” for “Streptavidin-HRP”, “analysis program (Molecular Devices, Sunnyvale, Calif.).” for “analysis program.”
A general note: In an ELISA, binding on a coated surface is turned into a signal by an enzyme label.

For test [8], the target named is T4, biotin-DLL4-hFc. The test is described as follows: Bispecific bridging ELISA: antibody pre-incubated with biotin-DLL4-hFc, captured on VEGF (ATGEN)-coated plate, streptavidin-HRP; potency relative to a reference anti-VEGF/anti-DLL4 bispecific antibody. As to the method:
as §3, with “VEGF (ATGEN, South Korea) was coated onto Nunc maxisorb plates at 2 ug/ml (100 μl/well) and incubated overnight at 2-8° C. Bispecific” for “FIG. 7. Bispecific antibody ELISA. Bispecific”, “to the” for “to a”, “Streptavidin-HRP (Jackson ImmunoResearch, West Grove, Pa.)” for “Streptavidin-HRP”, “analysis program (Molecular Devices, Sunnyvale, Calif.).” for “analysis program.”

Where two headings read alike, the source gives them in different places. Some results are limits rather than exact numbers.

T3 sequence (Q9NR61 27-522 limits assumed): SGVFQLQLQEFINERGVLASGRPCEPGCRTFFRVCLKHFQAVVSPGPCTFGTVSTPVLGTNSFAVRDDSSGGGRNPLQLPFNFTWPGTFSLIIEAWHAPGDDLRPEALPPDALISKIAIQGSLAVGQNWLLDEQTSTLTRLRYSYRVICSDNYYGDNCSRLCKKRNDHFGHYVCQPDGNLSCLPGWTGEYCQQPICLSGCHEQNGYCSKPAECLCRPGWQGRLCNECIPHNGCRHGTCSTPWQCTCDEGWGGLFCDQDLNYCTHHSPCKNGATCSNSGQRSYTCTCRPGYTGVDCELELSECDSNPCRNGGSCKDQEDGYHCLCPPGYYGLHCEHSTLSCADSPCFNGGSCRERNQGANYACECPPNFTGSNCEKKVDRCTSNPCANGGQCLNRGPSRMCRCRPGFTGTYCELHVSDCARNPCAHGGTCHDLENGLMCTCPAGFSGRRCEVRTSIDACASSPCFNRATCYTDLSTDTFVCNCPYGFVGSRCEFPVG
T4 sequence (Q9NR61 27-522 limits assumed): as above

B1: anti-DLL4 antibody 21M18 (parental, IgG format) (antibody, V domains shown)
VH: QVQLVQSGAEVKKPGASVKISCKASGYSFTAYYIHWVKQAPGQGLEWIGYISSYNGATNYNQKFKGRVTFTTDTSTSTAYMELRSLRSDDTAVYYCARDYDYDVGMDYWGQGTLVTVSS
VL: DIVMTQSPDSLAVSLGERATISCRASESVDNYGISFMKWFQQKPGQPPKLLIYAASNQGSGVPDRFSGSGSGTDFTLTISSLQAEDVAVYYCQQSKEVPWTFGGGTKVEIK
notes: Tested in IgG format; also called anti-hDLL4 antibody 21M18
For the molecule B1, the binding result in test [1] is on record as “no binding (tested: 100 nM (highest concentration injected))”; in test [2] it was “no binding”. Moreover, in test [3], the Kd (usually a measure of binding affinity in units of concentration) was less than 0.1 nM.

B2: anti-VEGF antibody 219R45 (parental, IgG format) (antibody, V domains shown)
VH: QVQLVQSGAEVKKPGASVKVSCKASGYTFTNYWMHWVRQAPGQGLEWMGDINPSNGRTSYKEKFKRRVTLSVDKSSSTAYMELSSLRSEDTAVYFCTIHYDDKYYPLMDYWGQGTLVTVSS
VL: DIVMTQSPDSLAVSLGERATISCRASESVDNYGISFMKWFQQKPGQPPKLLIYAASNQGSGVPDRFSGSGSGTDFTLTISSLQAEDVAVYYCQQSKEVPWTFGGGTKVEIKR
notes: Tested as the bivalent parental antibody in IgG format; also called parental anti-VEGF antibody 219R45
Turning to B2, the dissociation constant Kd amounted to 22.9 nM in test [1] and 0.67 nM in test [5]. In addition, the binding result in test [4] is given as “no binding”.

B3: anti-DLL4 antibody 21R79 (parental, IgG format) (antibody, V domains shown)
VH: QVQLVQSGAEVKKPGASVKISCKASGYSFTAYYIHWVKQAPGQGLEWIGYIANYNRATNYNQKFKGRVTFTTDTSTSTAYMELRSLRSDDTAVYYCARDYDYDVGMDYWGQGTLVTVSS
VL: DIVMTQSPDSLAVSLGERATISCRASESVDNYGISFMKWFQQKPGQPPKLLIYAASNQGSGVPDRFSGSGSGTDFTLTISSLQAEDVAVYYCQQSKEVPWTFGGGTKVEIKR
notes: Tested as the parental antibody in IgG format
Turning to B3, the binding result in test [1] is on record as “no binding (tested: 100 nM (highest concentration injected))”; in test [2] it was “no binding”. Besides, the Kd in test [3] is less than 0.1 nM.

B4: anti-VEGF/anti-DLL4 bispecific antibody 219R45-MB-21M18 (bispecific antibody, human IgG2)
heavy 1: QVQLVQSGAEVKKPGASVKVSCKASGYTFTNYWMHWVRQAPGQGLEWMGDINPSNGRTSYKEKFKRRVTLSVDKSSSTAYMELSSLRSEDTAVYFCTIHYDDKYYPLMDYWGQGTLVTVSSASTKGPSVFPLAPCSRSTSESTAALGCLVKDYFPEPVTVSWNSGALTSGVHTFPAVLQSSGLYSLSSVVTVPSSNFGTQTYTCNVDHKPSNTKVDKTVERKCCVECPPCPAPPVAGPSVFLFPPKPKDTLMISRTPEVTCVVVDVSHEDPEVQFNWYVDGVEVHNAKTKPREEQFNSTFRVVSVLTVVHQDWLNGKEYKCKVSNKGLPAPIEKTISKTKGQPREPQVYTLPPSREKMTKNQVSLTCLVKGFYPSDIAVEWESNGQPENNYKTTPPMLKSDGSFFLYSKLTVDKSRWQQGNVFSCSVMHEALHNHYTQKSLSLSPGK
heavy 2: QVQLVQSGAEVKKPGASVKISCKASGYSFTAYYIHWVKQAPGQGLEWIGYISSYNGATNYNQKFKGRVTFTTDTSTSTAYMELRSLRSDDTAVYYCARDYDYDVGMDYWGQGTLVTVSSASTKGPSVFPLAPCSRSTSESTAALGCLVKDYFPEPVTVSWNSGALTSGVHTFPAVLQSSGLYSLSSVVTVPSSNFGTQTYTCNVDHKPSNTKVDKTVERKCCVECPPCPAPPVAGPSVFLFPPKPKDTLMISRTPEVTCVVVDVSHEDPEVQFNWYVDGVEVHNAKTKPREEQFNSTFRVVSVLTVVHQDWLNGKEYKCKVSNKGLPAPIEKTISKTKGQPREPQVYTLPPSREEMTKNQVSLTCLVEGFYPSDIAVEWESNGQPENNYKTTPPMLDSDGSFFLYSELTVDKSRWQQGNVFSCSVMHEALHNHYTQKSLSLSPGK
light: DIVMTQSPDSLAVSLGERATISCRASESVDNYGISFMKWFQQKPGQPPKLLIYAASNQGSGVPDRFSGSGSGTDFTLTISSLQAEDVAVYYCQQSKEVPWTFGGGTKVEIKRTVAAPSVIFPPSDEQLKSGTASVVCLLNNFYPREAKVQWKVDNALQSGNSQESVTEQDSKDSTYSLSSTLTLSKADYEKHKVYACEVTHQGLSSPVTKSFNRGEC
notes: Monovalent/bispecific (MB) IgG2 heterodimer with charge-modified CH3 domains and two identical light chains
Regarding B4, the Kd was found to be 16 nM in test [6], 25.5 nM in test [1], 16 nM in test [3] and 0.36 nM in test [5]. Further, the EC50 (read off the curve) (in general, the concentration that produces a half-maximal response) with biotin-DLL4-hFc [7] is roughly 5 ng/mL. In addition, the “Relative Potency (%)” value with biotin-DLL4-hFc [8] is 67%.
